From article PMC3394733, “Involvement of the Penta-EF-Hand Protein Pef1p in the Ca^2+-Dependent Regulation of COPII Subunit Assembly in Saccharomyces cerevisiae” (PLoS ONE, 2012)

B1: GST-Pef1p (natural protein, S. cerevisiae, UniProt P53238 1-335, looked up)
chain: MCAKKLKYAAGDDFVRYATPKEAMEETRREFEKEKQRQQQIKVTQAQTPNTRVHSAPIPLQTQYNKNRAENGHHSYGSPQSYSPRHTKTPVDPRYNVIAQKPAGRPIPPAPTHYNNLNTSAQRIASSPPPLIHNQAVPAQLLKKVAPASFDSREDVRDMQVATQLFHNHDVKGKNRLTAEELQNLLQNDDNSHFCISSVDALINLFGASRFGTVNQAEFIALYKRVKSWRKVYVDNDINGSLTISVSEFHNSLQELGYLIPFEVSEKTFDQYAEFINRNGTGKELKFDKFVEALVWLMRLTKLFRKFDTNQEGIATIQYKDFIDATLYLGRFLPH
notes: No removal of GST is described; also called N-terminally GST-fused Pef1p; pMY3; source: E. coli JM109, purified (glutathione-Sepharose, eluted with 10 mM glutathione); not shown: GST, N-terminal, kept
B4: Sec13/31p complex (complex, S. cerevisiae)
chain 1: MVVIANAHNELIHDAVLDYYGKRLATCSSDKTIKIFEVEGETHKLIDTLTGHEGPVWRVDWAHPKFGTILASCSYDGKVLIWKEENGRWSQIAVHAVHSASVNSVQWAPHEYGPLLLVASSDGKVSVVEFKENGTTSPIIIDAHAIGVNSASWAPATIEEDGEHNGTKESRKFVTGGADNLVKIWKYNSDAQTYVLESTLEGHSDWVRDVAWSPTVLLRSYLASVSQDRTCIIWTQDNEQGPWKKTLLKEEKFPDVLWRASWSLSGNVLALSGGDNKVTLWKENLEGKWEPAGEVHQ
chain 2: MVKLAEFSRTATFAWSHDKIPLLVSGTVSGTVDANFSTDSSLELWSLLAADSEKPIASLQVDSKFNDLDWSHNNKIIAGALDNGSLELYSTNEANNAINSMARFSNHSSSVKTVKFNAKQDNVLASGGNNGEIFIWDMNKCTESPSNYTPLTPGQSMSSVDEVISLAWNQSLAHVFASAGSSNFASIWDLKAKKEVIHLSYTSPNSGIKQQLSVVEWHPKNSTRVATATGSDNDPSILIWDLRNANTPLQTLNQGHQKGILSLDWCHQDEHLLLSSGRDNTVLLWNPESAEQLSQFPARGNWCFKTKFAPEAPDLFACASFDNKIEVQTLQNLTNTLDEQETETKQQESETDFWNNVSREESKEKPTVFHLQAPTWYGEPSPAAHWAFGGKLVQITPDGKGVSITNPKISGLESNTTLSEALKTKDFKPLINQRLVKVIDDVNEEDWNLLEKLSMDGTEEFLKEALAFDNDESDAQDDANNEKEDDGEEFFQQIETNFQPEGDFSLSGNIEQTISKNLVSGNIKSAVKNSLENDLLMEAMVIALDSNNERLKESVKNAYFAKYGSKSSLSRILYSISKREVDDLVENLDVSQWKFISKAIQNLYPNDIAQRNEMLIKLGDRLKENGHRQDSLTLYLAAGSLDKVASIWLSEFPDLEDKLKKDNKTIYEAHSECLTEFIERFTVFSNFINGSSTINNEQLIAKFLEFINLTTSTGNFELATEFLNSLPSDNEEVKTEKARVLIASGKSLPAQNPATATTSKAKYTNAKTNKNVPVLPTPGMPSTTSIPSMQAPFYGMTPGASANALPPKPYVPATTTSAPVHTEGKYAPPSQPSMASPFVNKTNSSTRLNSFAPPPNPYATATVPATNVSTTSIPQNTFAPIQPGMPIMGDYNAQSSSIPSQPPINAVSGQTPHLNRKANDGWNDLPLKVKEKPSRAKAVSVAPPNILSTPTPLNGIPANAASTMPPPPLSRAPSSVSMVSPPPLHKNSRVPSLVATSESPRASISNPYAPPQSSQQFPIGTISTANQTSNTAQVASSNPYAPPPQQRVATPLSGGVPPAPLPKASNPYAPTATTQPNGSSYPPTGPYTNNHTMTSPPPVFNKPPTGPPPISMKKRSNKLASIEQNPSQGATYPPTLSSSASPLQPSQPPTLASQVNTSAENVSHEIPADQQPIVDFLKEELARVTPLTPKEYSKQLKDCDKRLKILFYHLEKQDLLTQPTIDCLHDLVALMKEKKYKEAMVIHANIATNHAQEGGNWLTGVKRLIGIAEATLN
notes: Sec13p, COPII outer coat subunit, S. cerevisiae; Sec31p, COPII outer coat subunit, S. cerevisiae; also called outer COPII coat; source: purified

Legend:
Details in all cases: both partners purified
Sec13/31p complex = biological target: B4; assay: pull-down; GST fusion or GST (40 nM) and Sec13/31p (80 nM) with 5 mM EGTA, glutathione-Sepharose beads, 4°C 2 h, 20 mM HEPES-KOH pH 8.0, 160 mM potassium acetate, 0.1% Triton X-100; immunoblot with anti-Sec31p
GST-Pef1p = biological target: B1; assay: pull-down; GST-Pef1p or GST (40 nM) and MBP-Sec31p fragment (80 nM), glutathione-Sepharose beads, 4°C 2 h, 20 mM HEPES-KOH pH 8.0, 160 mM potassium acetate, 0.1% Triton X-100; CaCl2 or EGTA not told for this experiment; immunoblot with anti-MBP
Sec23/24p complex = biological target: T1, Sec23/24p complex (S. cerevisiae, UniProt P15303 1-768; P40482 1-926); assay: light scattering of liposomes; liposomes (100 µg/mL) preloaded with Sar1p (950 nM) and GMP-PNP (0.1 mM); Sec23/24p (160 nM), then Sec13/31p (260 nM) added; 350 nm, 25°C, 20 mM HEPES-KOH pH 6.8, 160 mM potassium acetate, 1 mM MgCl2; 5 mM EGTA in panel A, none in panel B; with or without GST-Pef1p or its mutant (520 nM)
T1 construct: Sec23p, COPII inner coat subunit, GAP for Sar1p, S. cerevisiae; Sec24p, COPII inner coat subunit, S. cerevisiae; also called inner COPII coat
T1 sequence (P15303 whole entry, chain 1 of 2): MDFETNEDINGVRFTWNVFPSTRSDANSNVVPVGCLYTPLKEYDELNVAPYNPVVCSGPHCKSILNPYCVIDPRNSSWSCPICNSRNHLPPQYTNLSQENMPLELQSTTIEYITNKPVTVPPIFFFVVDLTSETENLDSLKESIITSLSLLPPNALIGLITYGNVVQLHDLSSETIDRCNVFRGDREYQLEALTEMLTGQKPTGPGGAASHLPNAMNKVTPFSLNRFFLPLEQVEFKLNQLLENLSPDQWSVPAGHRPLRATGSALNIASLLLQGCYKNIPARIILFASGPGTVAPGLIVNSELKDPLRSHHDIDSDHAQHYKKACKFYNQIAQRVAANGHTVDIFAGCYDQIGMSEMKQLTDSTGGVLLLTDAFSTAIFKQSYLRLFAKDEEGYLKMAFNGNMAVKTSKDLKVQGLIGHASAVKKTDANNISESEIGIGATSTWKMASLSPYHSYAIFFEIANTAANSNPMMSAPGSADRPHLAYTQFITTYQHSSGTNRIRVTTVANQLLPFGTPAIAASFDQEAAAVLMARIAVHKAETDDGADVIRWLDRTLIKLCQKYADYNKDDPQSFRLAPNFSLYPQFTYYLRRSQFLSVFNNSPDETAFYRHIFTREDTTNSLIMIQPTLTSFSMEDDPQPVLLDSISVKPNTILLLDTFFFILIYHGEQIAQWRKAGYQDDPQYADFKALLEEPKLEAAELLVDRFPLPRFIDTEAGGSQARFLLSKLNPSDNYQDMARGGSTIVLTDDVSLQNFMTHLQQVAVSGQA
T1 sequence (P40482 whole entry, chain 2 of 2): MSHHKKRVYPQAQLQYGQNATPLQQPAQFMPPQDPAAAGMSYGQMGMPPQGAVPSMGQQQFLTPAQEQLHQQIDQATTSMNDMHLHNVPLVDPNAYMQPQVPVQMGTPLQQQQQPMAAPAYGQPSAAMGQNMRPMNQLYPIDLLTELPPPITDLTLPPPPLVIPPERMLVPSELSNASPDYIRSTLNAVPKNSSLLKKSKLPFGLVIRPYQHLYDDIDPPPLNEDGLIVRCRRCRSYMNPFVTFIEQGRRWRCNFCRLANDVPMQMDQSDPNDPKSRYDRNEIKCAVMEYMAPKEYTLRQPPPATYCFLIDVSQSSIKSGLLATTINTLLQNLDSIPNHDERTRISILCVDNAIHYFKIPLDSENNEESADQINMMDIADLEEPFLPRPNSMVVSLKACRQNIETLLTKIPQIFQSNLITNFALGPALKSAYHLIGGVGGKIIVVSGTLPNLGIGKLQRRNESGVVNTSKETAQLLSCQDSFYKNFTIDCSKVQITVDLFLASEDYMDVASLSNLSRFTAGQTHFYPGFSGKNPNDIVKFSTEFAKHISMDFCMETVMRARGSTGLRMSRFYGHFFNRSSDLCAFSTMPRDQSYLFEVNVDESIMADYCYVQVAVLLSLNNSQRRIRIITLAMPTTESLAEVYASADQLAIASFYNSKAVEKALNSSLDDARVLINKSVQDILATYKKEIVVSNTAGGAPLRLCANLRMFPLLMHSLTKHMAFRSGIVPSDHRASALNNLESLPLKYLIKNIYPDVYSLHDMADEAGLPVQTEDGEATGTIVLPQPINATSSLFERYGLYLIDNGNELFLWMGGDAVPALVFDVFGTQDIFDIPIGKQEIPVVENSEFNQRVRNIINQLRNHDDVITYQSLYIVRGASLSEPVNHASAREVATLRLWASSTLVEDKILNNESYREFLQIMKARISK

Binder: B1
- binding result (Sec13/31p complex): binds

B2: GST-Pef1p-E180/181/248A (natural protein, S. cerevisiae, UniProt P53238 1-335, looked up)
chain: MCAKKLKYAAGDDFVRYATPKEAMEETRREFEKEKQRQQQIKVTQAQTPNTRVHSAPIPLQTQYNKNRAENGHHSYGSPQSYSPRHTKTPVDPRYNVIAQKPAGRPIPPAPTHYNNLNTSAQRIASSPPPLIHNQAVPAQLLKKVAPASFDSREDVRDMQVATQLFHNHDVKGKNRLTAAALQNLLQNDDNSHFCISSVDALINLFGASRFGTVNQAEFIALYKRVKSWRKVYVDNDINGSLTISVSAFHNSLQELGYLIPFEVSEKTFDQYAEFINRNGTGKELKFDKFVEALVWLMRLTKLFRKFDTNQEGIATIQYKDFIDATLYLGRFLPH
notes: also called pMY14; source: E. coli JM109, purified (glutathione-Sepharose, eluted with 10 mM glutathione); not shown: GST, N-terminal, kept
- binding result (Sec13/31p complex): binds

B3: MBP-Sec31(879–1114) (domain or fragment, S. cerevisiae, UniProt P38968 879-1114, looked up)
chain: APIQPGMPIMGDYNAQSSSIPSQPPINAVSGQTPHLNRKANDGWNDLPLKVKEKPSRAKAVSVAPPNILSTPTPLNGIPANAASTMPPPPLSRAPSSVSMVSPPPLHKNSRVPSLVATSESPRASISNPYAPPQSSQQFPIGTISTANQTSNTAQVASSNPYAPPPQQRVATPLSGGVPPAPLPKASNPYAPTATTQPNGSSYPPTGPYTNNHTMTSPPPVFNKPPTGPPPISMKK
notes: also called proline-rich region of Sec31p; pMY12; source: E. coli C41(DE3), purified (amylose resin, eluted with 30 mM maltose)
- binding result (GST-Pef1p): binds

Binder: B4
- binding result (Sec23/24p complex): binds
